Assay: yeast display, Sf9 membrane polyspecificity reagent, FACS + sequencing; frameworks hold sequencing errors
Summary of the method: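 A synthetic nanobody library was expressed on Saccharomyces cerevisiae BJ5465 by galactose induction for 36–48 hours. The library was stained for 1 hour at 4 °C with 10% biotinylated, detergent-solubilized Sf9 membrane reagent and enriched with streptavidin microbeads before FACS. Low and high (top ~1%) gates were set on anti-HA fluorescence for expression and streptavidin fluorescence for reagent binding, and each polyreactivity label reflects the gate of origin.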

| Sequence | polyreactivity (PSR sort gate) |
| --- | --- |
| QVQLVESGGGLVQAGGSLRLSCAATGRIVRGNAMGWYRQAPGKERELVAAISTRGGRTYYADSVKGRFTISRDNAKNTVYLQMTSLKPQDTAVYYCNKGDSASSLDYWGQGTQVTVSS | high polyreactivity |
| QVQLVESGGGLDQAGGSLRLSCAASGIILYGYTMGGYRQAPGKERELVAAINRGGSTNYADSVKGRFTISRDNAKNTVYLQMNSLKPEDTAVYYCAVDTVVASTYDYWGQGTQVTVSS | low polyreactivity |
| QVQLVESGGGLVQAGGSLRLSCAASGSTFRFYAMGWYRQEPGKERELVAAITSSGGSTYYADSVKGRFTISRDNAKNTVYLQMNSLKPEDTAVYYCNAYPNPVSYELDYWGQGTQVTVSS | low polyreactivity |
| QVQLVESGGVLVQAGGSLRLSCAASGRIFTGNAMGWYRQAPGKETELVAAISRRGTRTYYADSVKGRFTISRDNAKNTVYLQMNSLKPEDTAVYYCATVLYKAYNDYGYWGQGTQVTVSS | high polyreactivity |
| QVQLVESGGGLVQAGGSLRLSCAASGLTFRRNAMGWYRQAPGKERELVAAITARGTSTYYADSVKGRFSISRDNAKNTVYLQMNSLKPEDTAVYYCNVRWHRTRSEYDYWGQGTQVTVSS | high polyreactivity |
| QVQLVESGVGIVQAGGSLRLSCAASGFTFDNYVMGWYRQAPGKERELVAAISTGSRTYYADSVKGRFTISRDNAKNTVYLQMNSLKPEDTAVYYCAASYVRRSWYSNDYWGQGTQVTVSS | high polyreactivity |
| QVQLVESGGGLVQAGGSLRLSCAASGSTFKRNARGWYRQAPGKERELVASISKRGGSTYYADSVKGRFTISRDNAKNTVYLQMNSLIPEDTAVYYCAKTWQNGDRNTIGSVYAYDYWGQGTQVTVSS | high polyreactivity |
| QVQLVESGGCLVQAGGSLRLSCAASGRTIRENVMGWYIQAPGKERELVAAITGNDGTTYYADSVKGRFTISRDNAKNTVNLQMNSLKPEDTAVYYCASERGDSAYRKYDYWGQGTQVTVSS | low polyreactivity |
| QVQLVESGGGLVQAGGRLRLSCAASGRTFRGYAMGWYRQAPGKERELVAAITSGGSTNYADSVKGRFTISRDNAKYTVYLQMTSLKPEDTAVYYCAAEPYSWDTWVDYDYWGQGTQVTVSS | low polyreactivity |
| QVQLVESGGGLVQAGGSLRLSCAASGSIFGAYTMGWYRQAPGKERELVAAISIGGSTNYADSVKGRFTISRDNAKNTVYLQMNSLKPEDTAVYYCAAYRQANRYGGEDYWGLGTQVTVSS | high polyreactivity |
| QVHLVESGGGLVQAGGSLRLSCAASGRTIVGYDMGWYRQAPGKEMELVAAISSRGGSTYYADSVKGRFTISRDNAKNTVYLQRNSLKPEDTAVYYCAALWYVGYGPVDYWGQGTQVTVSS | high polyreactivity |
| QVQLVESGGGLVQAGGSLRLSCAASGNLFDYYAMGWYRQAPGKERELVAAISTGTSTYADSVKGRFTISRDNAKNTVYLQMNSLKPEDTAVYYCAADVGIRPLNYHPYNYWGQGTQVTVSS | low polyreactivity |
| QVQLVESAGGLVQAGGSHRLSCAASGFIFDSYAMGCYRPAPGKERELVAAITYSGSSTYYADSVKGRFTISRDNAKNTVYLQMNSLKPEDTGVYYCAAVWRYSHLYGYWGQGTQVTVSS | high polyreactivity |
| QVQLVESGGGLVQAGGSLRLSCAASGSIFDPYAMGWYRQAPGKERELVAGISFSGGRTYYADSVKGRFTISRDNAKNTVYLQMNSLKPEDTAVYYCNKLLTQGAYPYYYWGQGTQVTVSS | high polyreactivity |
| QVQLVESGGGLVQAGGSLRLRCAASGRIFSTYAMGWYRQAPGKERALVAAINKIGGSTYYADSVKGRFTISRDNAKNTVYLQMNSLKPEDTAVYYCAADAPFYPVRRYYYWGQGTQVTVSS | low polyreactivity |
| QVQLVESGGGLVQAGGSLRLSCAASGSTFYVNAMGWYRQAPGKERELVAAIRYSGGRTYYADSVKGRFTISRDNAKNTVYLQMNSLKPEDTAVYYCAATTYYGGLYTREFDYWGQGTQVTVSS | low polyreactivity |
| QVQLVESGGGLVQAGGSLRLSCAASGQTFRRYDMGWYRQAPGKEREFVAAITWSTGSTYYADSVKGRFTISRDYAKNTVYLQMNSLKPEDTAGYYCAARSGYFYRYYKYDYWGQGTQVTVSS | high polyreactivity |
| QVQLVESGGGLVQAGGSLRLSFAASGQTFRWNAMGWYRQAPGKERELFAAISRGDRTNYADSVKGRFTISRDNAKNTVYLQMNSLNPEDTAVYYCAKTYQTNYYNGTWGVTSYGYWGQGTQVTVSS | high polyreactivity |
| QVQLVESGGGLLQSGGSLRLSCAASGFIFRSYAMGWYRQAPGKEREFVASISSRGGTTYYADSVKGRFTISRDNAKKTVYLQMNRLKPEDTAVYYCAADYFRWAGWGYEYWGQGSQVTVSS | high polyreactivity |
| QVQLVESGGGLVQAGGSLRLSCAASGNIFRSYAMGWYRQAPGKERELVAAISSRGGSTYYADSVKGRFTISRDNAKNTVYLQMNSLKPEDTAVYYCNAPSTQQGPKYDYWGQGTQVTVSS | low polyreactivity |
| QVQLVESGGGLVQAGGSLRLSCAASGFTFVTYAMGWYRQAPGKERELVAAISSSGRTYYADSVKGRFTISRDNAKNTVYLQMNSLKPEDTAVYYCAVQGAWRSFYYWGQGTQVTVSS | high polyreactivity |
| QVQLVESGGGLVQAGGSLRLSCAASGSTIGRYAMGWYRQAPGKERELVAAISSSGDRTYYADSVKGRFTISRDNAKNTVYLQMNSLKPEDTAVYYCNSRRLFSGYDYWGQGTQVTVSS | high polyreactivity |

| Sequence | polyreactivity (PSR sort gate) |
| --- | --- |
| QVQLVESGGGLVQAGGSLRLSCAASGSIFSHNAMGWYRQAPGKERELVAAISRSGGSTYYADSVKGRFTISRDNAKNTVYLQMKSLKPEDTAVYYCAVRAYKVSRYYYWGQGSQVTVSS | low polyreactivity |
| QVQLVESGGGLVQAGGSLRLSCAASGSIFYSNAMGWYRQAPGKERELVAAISVSGVTTYYADSVKGRFTISRDNAKNTVYLQMNSLKPEDTAVYYCAADTGYRYDDYYWWGGEYDYWGQGTQVTVSS | low polyreactivity |
| QVQLVESGGGLVQAGGSLRLSCAASGSIFKYSAMAWYRPAPGKERELVATITSGGRTNYADSVKGRFTISRDNAKNTVYLQMNSLKPEDPAVYYCAAGSYYPYHSTTRWYVYWGQGTQVTVSS | high polyreactivity |
| QVQLVESGGGLVQAGGSLRLSCAASGFIFLGYAMGWYRPAPGKERELVATITWRGGSTYYADSVKGRFTISRDNAKNTVYLQMNSLKPEDTAVYYCAATRGWLHSFARDDHDYWGQGTQVTVSS | high polyreactivity |
| QVQLVESGGGLVQAGGSLRLSCAASGRIFYAYAKGWYRPAPGKEREVVAAITRGGSTYYADSVKGRFTISRDNAKNTVYLQLNCLKREDTAVYSWAAQGYAPPLGESLGYWGEGTQVTVSS | low polyreactivity |
| QVQLVESGGGLVQAGGSLRLSCAASGSTFQLYAMGWYRQAPGKERELVAAISGIGDSTYYADSVKGRFTISRDNAKNTVYLQMNSLKPEDTAVYYCAREFSDGLSGKFDYWGHGTQVTVSS | low polyreactivity |
| QVQLVESGGGLVQAGGSLRLSCAASGSTFSGNALGWYRQPPGKERELVAAITSSGGSTDYADSVKGRFTISRDNAKNSVYLQMNSLKPEDTAVYYCNTVFHYFNSGAYNFGYWGQGTQVTVSS | high polyreactivity |
| QVQLVESGGGLVQAGGSLRLSCAASGRNFTRNAMGWYRQAPGKEREFVAAISYRGGSTYYADSVKGRFTISRDNAKNTVYLQMNSLKPEDSAVYYCAKRIYPYYGELYWGQGTQVTVSS | high polyreactivity |
| QVQLVESGGGLVQAVGSLRLSCAASGRIFGYYDMGWYRQAPGKERELVAAINYDGGSTYYADSVKGRFTISRDNAKNTVYLQMNSLKPDDTAVYYCNKDGRVYLDHDYWGQGTQVTVSS | low polyreactivity |
| QVQLVESGGGLVQSGGSLRLSCAATGSTFWNYAMGWYRQAPGKERELVAAITRGSSTNYADSVKGRFTISRDNAKNTVYLQMNSMKPEDTAVYYCAKRVGRWSAFYYWGQGTQVTVSS | high polyreactivity |
| QVQLVESGGGLVQAGGSLRLSCAASGSIFNIYAMGWYRQAPGKERELVATITGIADSTYYADSVKGRFTISRDNAKNTVYLQMNSLKPEDTAVYFCAAEKYVAEYEYWGQGTQVTVSS | low polyreactivity |
| QVQLVESGGGLVQAGGSIRLSCAASGRTFYLYAMGWYRQAPGKERELVAVISRRGGRTYYADSVKGRFTISRDNSKNTVYLQMNSLKPEDTAVYYCAVYSFGMGYWGQGTQVTVSS | high polyreactivity |
| QVQLVESGGGLVQAGGSLRLSCAASGRILTSNAMGWYRQAPGKERELVAAISWSGGSTYYADSVKGRFTISRDNAKNTVYLQMNSLKPEDTAVYYCAARSIGRAGGYHYWGQGTQVTVSS | low polyreactivity |
| QVQLVESGGGLVQAGGSLRLSCAASGRTFYDNVMGWYRQAPGKERELVAAISSGGSTNYADSVKGRFTISRDNAKNTVYLQMNSLIPEDTAVYYCATNGGGGWAYEYWGQGTQVTVSS | low polyreactivity |
| QVQLVESGGGLVQAGGSLRLSCAASGIIFSYNAMGWYRQAPGKERELVAAITRTGSTNYADSVKGRFTISRDNAKNTVYLQMNSLKPEDTAVYYCAAGWGYGRYRHVGYRMDYWGQGTQVTVSS | high polyreactivity |
| QDQHVESGGGLVQAGGRLRLSCAASGRIFSFYVMGWYIQAPGKERELVASISLSGGSTYYADSVKGRFTFSRDNAKNTVYLQMNSLKPEDTEVYYCNAVLYARQRERWARYDYWGQGTQVTVSS | high polyreactivity |
| QVQLVESGGCLVQAGGSRRLSWAASGRIFDTYTMGWYRQAPGKERELVAAITSGGSTYYADSVKGRFTISRDNAMNTVYLQMNSLKPEDTAVYYCAARYRSIIRYYYWGQGTQVTVSS | high polyreactivity |
| QVQLVESGGGLLQAGGSLRLSCAASGYTSSRYAMGWYRQAPGKESELLAAISGTGGSTNYADSVKGRFTISRDNAKNTVYLQMNRLKPEDSAVYYCATRSFGAGYVGVRYYYWGQATQVTVSS | high polyreactivity |
| QVQLVDSGGGLVQAGGSLRLTCAASGRIFYYNPMGWNRQAPGIVRELVDAINMISGSTYYADSVKGRFTISRDNAKNSVYFQMNSLKPEDTAVYYCAAQGVDTRIFFSFGFDYWGQGTQVNVSS | high polyreactivity |
| QVQLVESGGGLVQAGGSLRLSCAASGSIFLSYTMGRYRQAPGKERELVAAITSGGSTKYADSVKGRFTISRDNAKNTVYLQMNSLKPEDTAVYYCNATPYSRLGYWGQGTQVTVSS | high polyreactivity |
| QVQLVESGGGLVQAGGSLRLSCAASGITFSVYAMGWYRQAPGKEWELVASISSGGTSTYYADSVKGRFTISRDNAKNTVYLQMNSLKPEDTAVYYCAAYSYYTGDQYSYDYWGQGTQVTVSS | low polyreactivity |

Source: the nanobody polyreactivity screen of Harvey et al. (2022)
